Measurements from paper PMC6917787, “Structural basis of nucleosome assembly by the Abo1 AAA+ ATPase histone chaperone” (Nature Communications, 2019).

Legend:
[1] = test system: Histone H3-H4, Cy5-labelled ((only implied by the reviewer comments)); assay: single-molecule DNA curtain; settings: DNA curtain: 5 nM Abo1 and 12.5 nM Cy5-H3-H4 pre-incubated on ice 15 min with 1 mM nucleotide, then 15 min with DNA without flow, YOYO-1 washed out in assay …
[2] = target: the molecule itself; assay: SEC; Superose6 gel filtration of purified Abo1 in buffer with 2 mM EDTA, 2 mM MgCl2 or 2 mM MgATP
[3] = target: Cy3-labeled histone H3–H4 (X. laevis) (UniProt P84233); assay: fluorescence polarisation; fluorescence anisotropy; 0–1 μM Abo1 added to 20 nM Cy3-labeled H3–H4; 30 mM HEPES pH 7.5, 200 mM NaCl, 1 % glycerol, 2 mM MgCl2, 0.01 % NP-40; room temperature; affinity not significantly changed with nucleotide
[4] = target: the molecule itself; assay: cryo-EM structure; Abo1 in 20 mM HEPES pH7.5, 250 mM NaCl, 1 mM DTT, 0.025 % octyl β-D-glucoside with 2 mM MgCl2 (apo), 2 mM MgADP or 2 mM MgATP (Walker B mutant)

Molecule: lambda phage DNA (single-tethered DNA curtain)
- binding signal (% DNA with bound H3-H4) [1]: 5.24
- binding signal (% DNA with bound H3-H4) ([1]; loading by wild-type Abo1 (5 nM), 1 mM ATP): 85
- binding signal (% DNA with bound H3-H4) ([1]; wild-type Abo1, no ATP): < 10

B1: Abo1 (aa243–1190), wild type (enzyme, Schizosaccharomyces pombe, UniProt O14114 243-1190, looked up)
chain: GRIREKSDLADSDPLGVDSSLSFESVGGLDNYINQLKEMVMLPLLYPEIFQRFNMQPPRGVLFHGPPGTGKTLMARALAAACSSENKKVSFYMRKGADCLSKWVGEAERQLRLLFEEAKSTQPSIIFFDEIDGLAPVRSSKQEQIHASIVSTLLALMDGMESRGQVIIIGATNRPDAVDPALRRPGRFDREFYFPLPDRDARKKIIEIHTRNWDPPVPEWLCSMLAEKSKGYGGADLRALCTEAALNSIKRTYPQLYRSTKRLQIDPKTIKVKVKDFVMSMKRMIPSSERSSISPSKPLSPELKPLLNEAFQDIEKTLQKLMPVASKLNPLEEVMYDDPKENDFEYQQRLETFETLRIYKPRFLICGRKGLGQTALGPAILQQYEGVHVQSFDMSTLLQDSTQSIETSIIHLFLEVRRHTPSIIYIPDIDNWLNVLPLTAITTFSSMLERLDFSDQILFLALSSSPLSELHPQLREWFSSKQSVYSLQYPTRDSIIAFFQPILELIKASPTELPGGIPRKRRVLPELPLAPDPPPFTSQKITLKQTKQADMRLLNKLKIKLNALLGSLRARYRKFKKPLIDFNDIYCVDPETGHSYRSREECHYEFVDDVVKQIGSDQKFSMMSLEEIEKRTWDNCYCTPKQFVHDIKLILRDALQLEDSETIKRAQEMYANVLLGVEDMEDDQFSQRCERMALREAERRKLRHGKLQKHLDETKADMQFTSEKPSVDESITEVDDAIKDGPPVLAETLTNSLMEDVGPENVDMDIEDNEIFTNQSTMSVPSMLVENEESPKPDEYIDQKDKVQSPLLNGKSPVGVPSEAALRVSTDVSTNISSNGRADIPVDTLITSPADVPNNAPTDAHNITSADGHIENIEQEVVFPDLVFDEDRLTPLKQLLIDSTTGFTVDQLLHLHSFLYQIIWNTKSEWNRNSVVDECERAVKEFMINALQ
notes: Abo1, Schizosaccharomyces pombe ATAD2 homolog, aa243–1190 (acidic N-terminus truncated; two AAA+ domains, bromodomain and C-terminal domain); Gene synthesized (Genscript), pFastBac-HTB; also called recombinant Abo1; wild-type Abo1; source: Sf9 (baculovirus), purified (Ni-NTA, TEV cleavage, HiTrapQ); not shown: 6xHis, N-terminal, cleaved
- stoichiometry N [2]: 6
- Kd [3]: 23 nM

B2: Abo1 Walker B mutant (E372Q), aa243–1190 (enzyme, Schizosaccharomyces pombe, UniProt O14114 243-1190, looked up)
chain: GRIREKSDLADSDPLGVDSSLSFESVGGLDNYINQLKEMVMLPLLYPEIFQRFNMQPPRGVLFHGPPGTGKTLMARALAAACSSENKKVSFYMRKGADCLSKWVGEAERQLRLLFEEAKSTQPSIIFFDQIDGLAPVRSSKQEQIHASIVSTLLALMDGMESRGQVIIIGATNRPDAVDPALRRPGRFDREFYFPLPDRDARKKIIEIHTRNWDPPVPEWLCSMLAEKSKGYGGADLRALCTEAALNSIKRTYPQLYRSTKRLQIDPKTIKVKVKDFVMSMKRMIPSSERSSISPSKPLSPELKPLLNEAFQDIEKTLQKLMPVASKLNPLEEVMYDDPKENDFEYQQRLETFETLRIYKPRFLICGRKGLGQTALGPAILQQYEGVHVQSFDMSTLLQDSTQSIETSIIHLFLEVRRHTPSIIYIPDIDNWLNVLPLTAITTFSSMLERLDFSDQILFLALSSSPLSELHPQLREWFSSKQSVYSLQYPTRDSIIAFFQPILELIKASPTELPGGIPRKRRVLPELPLAPDPPPFTSQKITLKQTKQADMRLLNKLKIKLNALLGSLRARYRKFKKPLIDFNDIYCVDPETGHSYRSREECHYEFVDDVVKQIGSDQKFSMMSLEEIEKRTWDNCYCTPKQFVHDIKLILRDALQLEDSETIKRAQEMYANVLLGVEDMEDDQFSQRCERMALREAERRKLRHGKLQKHLDETKADMQFTSEKPSVDESITEVDDAIKDGPPVLAETLTNSLMEDVGPENVDMDIEDNEIFTNQSTMSVPSMLVENEESPKPDEYIDQKDKVQSPLLNGKSPVGVPSEAALRVSTDVSTNISSNGRADIPVDTLITSPADVPNNAPTDAHNITSADGHIENIEQEVVFPDLVFDEDRLTPLKQLLIDSTTGFTVDQLLHLHSFLYQIIWNTKSEWNRNSVVDECERAVKEFMINALQ
notes: Abo1, Schizosaccharomyces pombe, aa243–1190, Walker B mutation E372Q; also called ATP-Abo1 Walker B mutant; ATP-Abo1; source: Sf9 (baculovirus), purified (Ni-NTA, TEV cleavage, HiTrapQ); not shown: 6xHis, N-terminal, cleaved
- binding result [4]: binds
